Data published in paper PMC9674691.
Each block holds one substance with its values, some of them ahead of it.

Experiments:
[1] = target: biotinylated NmeHNH (Neisseria meningitidis) (UniProt C9X1G5); experiment: BLI; biotinylated NmeHNH on streptavidin biosensors, Acr as analyte, 37 °C, 20 mM Tris, 100 mM NaCl, pH 7.4 without DTT; global 1:1 fit
[2] = target: biotinylated NmeHNH (Neisseria meningitidis) (UniProt C9X1G5); experiment: BLI; biotinylated NmeHNH on streptavidin biosensors, Acr as analyte, 37 °C, 20 mM Tris, 100 mM NaCl, pH 7.4 with 1 mM DTT; global 1:1 fit
[3] = target: NmeAcrIIC1 (AcrIIC1 from Neisseria meningitidis), reduced form (Neisseria meningitidis); experiment: SEC; NmeAcrIIC1 alone, no reductant in the buffer or excess H2O2 added to the monomer eluent
[4] = target: Cys17 (UniProt position 17, AGYDGCGLCLA); experiment: NMR; conditions: 25 °C (general statement in the NMR methods), 100 mM NaCl, 50 mM Tris, buffer-exchanged at each pH, Free protein. Reduced monomer is inferred from Cbeta shifts of about 25.5-29.5 ppm, typical of free thiol. The presence of a reductant in the titration buffer is not stated.
[5] = target: Cys80 (UniProt position 80, VGMASCWEFVE); experiment: NMR; conditions: 25 °C (general statement in the NMR methods), 100 mM NaCl, 50 mM Tris, buffer-exchanged at each pH, Free protein. Reduced monomer is inferred from Cbeta shifts of about 25.5-29.5 ppm, typical of free thiol. The presence of a reductant in the titration buffer is not stated.
[6] = target: BoeAcrIIC1 (AcrIIC1 ortholog from Brackiella oedipodis) (Brackiella oedipodis); experiment: SEC + other: 1H NMR spectra; AcrIIC1 ortholog alone, oxidizing condition

Substance: NmeAcrIIC1 (AcrIIC1 from Neisseria meningitidis), reduced form (natural protein)
stoichiometry N [3]: 2
Kd [2]: 1.78 nM

Substance: Anti-CRISPR protein AcrIIC1 (NmeAcrIIC1) (Neisseria meningitidis)
pKa [4]: 8.920 ± 0.158
pKa [5]: 8.258 ± 0.218

Substance: BoeAcrIIC1 (AcrIIC1 ortholog from Brackiella oedipodis) (natural protein)
stoichiometry N [6]: 2

Now from value to substance:

Kd [1]: 10.8 nM
Kd [2]: 12.7 nM
Substance: AcrIIC1-SS (NmeAcrIIC1 with Cys17 and Cys80 substituted with serine) (natural protein)

BLI response [1]: < 0.05
Substance: oxidized NmeAcrIIC1 dimer (natural protein)
